Where two headings read alike, the source gives them in different places. Square brackets hold non-standard residues; d marks the D form. * marks the point of attachment. Biotin = O=C1N[C@H]2[C@H](CS[C@H]2CCCCC(=O)*)N1; d(pT) = C[C@H](OP(=O)(O)O)[C@@H](N)C(=O)O; pT = C[C@@H](OP(=O)(O)O)[C@H](N)C(=O)O; 2Nal = N[C@@H](Cc1ccc2ccccc2c1)C(=O)O; Bta = N[C@@H](Cc1csc2ccccc12)C(=O)O; Pip = O=C(O)[C@@H]1CCCCN1; Bth = benzothiophene

One test concerns the target hPar14 (Homo sapiens, UniProt Q9Y237). Nature of the test: Protease coupled PPIase assay, hPar14. In kind it is biochemical. The settings on record: up to 50 μM. The procedure:
FIG. 6 depicts the influence of peptide 17 on the hPar14 PPIase activity. The apparent first order rate constant kobs determined for the cis to trans isomerization of the arginyl-prolyl peptide bond of the substrate Suc-Ala-Arg-Pro-Phe-NH-Np (SEQ ID NO: 3) was measured using the protease coupled PPIase assay. α-Chymotrypsin was used as isomer specific protease. As control, the nonphosphorylated derivative of peptide 17 was used.
PPIase activities were monitored on a Hewlett-Packard 8452A diode array spectrophotometer according to Fischer et al., 1984 and Zhang et al., 2002. The hPar14 PPIase activity was measured with Suc-Ala-Arg-Pro-Phe-NH-Np (SEQ ID NO: 3) (final concentration 75 μM) as substrate and α-chymotrypsin (final concentration 60 μM) as isomer specific protease. PPIase activity of hCyp 18 and FKBP12 were measured using Suc-Ala-Ala-Pro-Phe-NH-Np (SEQ ID NO: 7) as substrate (final concentration 16 μM) and α-chymotrypsin (final concentration 60 μM) as isomer specific protease. PPIase activity of hPin1 was measured with Ac-Ala-Ala-Ser(PO3H2)-Pro-Arg-NH-Np (SEQ ID NO: 4) (final concentration 10 μM) as substrate and trypsin (final concentration 60 μM) as isomer specific protease. Final concentrations of the PPIases were 1.7 μM for hPar14, 4 nM for hPin1, 7 nM for FKBP12 and 9.7 nM for hCyp18. […] Measurements were monitored at 390 nm. […]

For test [1], the target named is T1, interaction of MPM-2 antigens with GST-hPin1 (Homo sapiens, UniProt Q13526).
T1 construct: made in house
T1 sequence (Q13526 whole entry): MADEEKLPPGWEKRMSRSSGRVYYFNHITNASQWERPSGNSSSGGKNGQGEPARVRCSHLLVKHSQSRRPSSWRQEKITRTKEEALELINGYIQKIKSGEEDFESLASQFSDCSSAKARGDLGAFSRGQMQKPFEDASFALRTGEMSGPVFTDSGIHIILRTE
Nature of the test: MPM-2 competition assay. In kind it is binding. As to conditions: mitotic HeLa cell lysate, 8 μM GST-hPin1. The procedure: FIG. 7 depicts the influence of peptide 17 on the interaction of MPM-2 antigens with hPin1. The indicated concentration of peptide 17 or its nonphosphorylated derivative (control) was incubated with an 8 μM solution of GST-hPin1. After addition of mitotic HeLa cell lysate, GST-hPin1 was extracted from the respective mixture using glutathione sepharose. Samples were analyzed regarding extracted GST-hPin1 and coprecipitated MPM-2 antigenes by SDS PAGE and western blot analysis. Untreated lysate of mitotic HeLa cells was loaded on the first line (extract). MPM-2 antigenes were detected using the monoclonal anti MPM-2 antibody (mouse). GST-hPin1 was detected using an anti hPin1 PPIase domain antiserum (rabbit). Horseradish peroxidase-conjugated antibodies from mouse or rabbit were used as secondary antibodies. […]
1.3 mM of Peptide 17 or its nonphosphorylated derivative were incubated with GST-hPin1 (8 μM) for 2 hours at 4° C. […] Following SDS-PAGE, the samples were analyzed by western blot analysis. GST-hPin1 and coextracted MPM-2 antigens were detected using an anti hPin1 PPIase domain antiserum (rabbit) or monoclonal anti MPM-2 antibody (Upstate Biotechnology) from mouse. […]
MPM-2 antigens are mitotic phosphoproteins that are specifically recognized by the monoclonal antibody MPM-2. […] The coextracted MPM-2 antigenes were detected after SDS PAGE by western blot analysis using the anti MPM-2 antibody. […]

Another test relates to X. laevis embryos. Nature of the test: Microinjection in X. laevis embryos, cell division. In kind it is in vivo. The settings on record: microinjection at stage 2. The procedure: FIG. 8 depicts the blocking of cell division by the injection of peptide 17 in X. laevis embryos. 50-300 pmol of peptide 17 or 300 pmol of its nonphosphorylated derivative (control) dissolved in 10 nl PBS buffer were microinjected in the animal half of X. laevis embryos at stage 2 of development. Embryos with large and/or apoptotic appearing cells surrounded by normally developing cells were counted after further 5 hours (stage 8-9) of development. […] Each value is the average of four independent experiments.
FIGS. 9A-F depicts phenotypic analysis of X. laevis embryos after injection of peptide 17. 300 pmol of peptide 17 or its nonphosphorylated derivative dissolved in 10 nl PBS buffer were injected in the animal half of X. laevis embryos at stage 2 of development. 1.5 hour at stage 6 (A), 2.5 hours at stage 7 (B) and 4-5 hours at stage 8-9 (C, D) after injection enlarged cells became visible. Cells that are blocked in cell division are marked with a white arrow. Controls of uninjected embryos of stage 8-9 and embryos that were injected with 300 pmol of the nonphosphorylated derivative of peptide 17 are shown in panels E and F. The site where the nonphosphorylated derivative of peptide 17 was injected is marked with a white arrow (F).
FIGS. 10A-D depict the rescue of peptide 17 caused cell division block in X. laevis embryos by hPin1 (A, B) and different hPin1 variants (C, D). FIG. 10A depicts the time course of V5-tagged hPin1 expression was analyzed by preparation of X. laevis embryo lysate 1, 2 and 4 hours after injection of 1, 2 or 3 ng of V5-tagged hPin1 mRNA. In every case, the injected volume was 10 nl. Lysates were prepared in lysis buffer containing phosphatase and protease inhibitors. Samples were separated by SDS PAGE followed by western blotting. Endogenous XlPin1 and V5-tagged hPin1 were detected using an anti hPin1 PPIase domain antiserum as primary antibody followed by incubation with a horseradish peroxidase-conjugated secondary antibody. Visualization was done using the SuperSignal® substrate. […] In every case, the whole volume of injection was 10 nl. The indicated amount of the mRNA was injected in the animal half of 30 embryos at stage 2 of development. Embryos with large and/or apoptotic appearing cells surrounded by normally developed cells were counted after additional 5 hours of development (stage 8-9). […] Each percentage of vital embryos shown in the figure is the average of four independent experiments. FIG. 10C indicates the expression of V5-tagged hPin1 variants was evaluated by preparation of embryo lysate after 4 hours of injection of the respective mRNA (2 ng) in X. laevis embryos. Lysates were prepared in lysis buffer containing phosphatase and protease inhibitors. Samples were separated using SDS PAGE followed by western blot analysis. Endogenous XlPin1 and injected V5-tagged hPin1 variants were detected using an anti hPin1 PPIase domain antiserum as primary antibody and a horseradish peroxidase-conjugated secondary antibody. Visualization was done by a chemiluminescent reaction using the SuperSignal® substrate (Pierce). FIG. 10D depicts 250 pmol of peptide 17 was coinjected with 2 ng mRNA of the indicated V5-tagged hPin1 variant (whole volume 10 nl) in the animal half of 30 X. laevis embryos at stage 2 of development. Results were analyzed as described for FIG. 10B. Each percentage of vital embryos shown in the figure is the average of four independent experiments.
Microinjection was done into the animal half of X. laevis embryos at stage 2 of development. In every case, the injection volume was 10 nl. Immunofluorescence studies of frozen X. laevis embryo sections were performed as previously described (Julius et al., 2000). Ten-micrometer cryosections of stage 8 embryos were labelled using a monoclonal anti hPin1 antibody (mouse) followed by incubation with Alexa Fluor 546™-conjugated anti mouse antibody of goat serum (Molecular Probes). […]

The target of test [2] is T2, full-length hPin1 (human, UniProt Q13526 1-163). Nature of the test: comparison of Kd values.
T2 sequence (Q13526 whole entry): as above
Test [3] deals with T2, full-length hPin1. Description: isothermal titration calorimetry, single binding site model. For orientation: ITC needs no label: the signal is the heat of the interaction.
Test [4] addresses T2, full-length hPin1. Description: method not stated there (ITC value of paragraph 223 rounded); D isomer.
Test [5] deals with T2, full-length hPin1. Description: isothermal titration calorimetry, 10 °C, full-length hPin1 in the cell.
Test [6] concerns the target T2, full-length hPin1. Nature of the test: cell-based or functional assay.
Test [7] concerns the target T2, full-length hPin1. Nature of the test: cell-based or functional assay. The source holds these as a separate data set.
Test [8] has as its target T2, full-length hPin1. Nature of the test: cell-based or functional assay. This is another data set of the same source.
The target in test [9] is T2, full-length hPin1. Description: inhibition of PPIase activity.

Chain of hPar14 (Q9Y237 whole entry): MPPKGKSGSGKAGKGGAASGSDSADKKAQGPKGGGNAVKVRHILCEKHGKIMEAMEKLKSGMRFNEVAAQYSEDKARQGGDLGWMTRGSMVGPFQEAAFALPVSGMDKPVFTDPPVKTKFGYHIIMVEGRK

For the molecule “nonphosphorylated derivative of peptide 17: nonphosphorylated derivative of peptide 17, used as control (Ac-F[dT][Pip][2Nal]Q-NH2) [reference compound]”, in the test with hPar14, the “inhibition of hPar14 PPIase activity” value is on record as “No inhibition”. The “influence on interaction of MPM-2 antigenes with GST-hPin1” value in test [1] is given as “had no effect”. In addition, the “effect on development of the embryos” value with X. laevis embryos is given as “no visible effect”.
For “peptide 17, Ac-Phe-D-Thr(PO3H2)-Pip-Nal-Gln-NH2”, in the test with full-length hPin1 [2], the fold tighter binding against Ac-Phe-L-Thr(PO3H2)-Pip-Nal-Gln-NH2 worked out at 30 fold. For the same molecule, in the test with full-length hPin1 [3], the Ka is 5.18e+07 M⁻¹ and the n (binding stoichiometry) came out at 0.96. For the same molecule, the Kd (as a rule, a measure of binding affinity in units of concentration) with full-length hPin1 [4] came out at 19 nM. Further, in the test with full-length hPin1 [5], the binding enthalpy ΔHbind was -4.56 kcal/mol and the binding entropy TΔSbind is 5.43 kcal/mol.

B1: peptide 15, Ac-Lys(N^ε-biotinoyl)-Ala-Ala-Bth-Thr(PO3H2)Pip-Nal-Gln-NH2 (peptide)
peptide: Ac-K(Biotin)AA[Bth][pT][Pip]AQ-NH2
modifications: not fully specified (residue 7); printed as Ac-Lys(N^ε-biotinoyl)-Ala-Ala-Bth-Thr(PO3H2)Pip-Nal-Gln-NH2
B1: the IC50(µM), blockade of the PPIase activity of hPin1, protease free PPIase assay with full-length hPin1 [6] amounted to 0.21 µM.
As for Ac-K(Biotin)AA[Bta][pT]P[2Nal]Q-NH2 [peptide 4], the “fold decrease of inhibition of hPin1 PPIase activity against peptide 15” value with full-length hPin1 [7] was found to be 100 fold. Further, the “IC50(µM), blockade of the PPIase activity of hPin1, protease free PPIase assay” value with full-length hPin1 [8] came to 20 µM.
For Ac-K(Biotin)AA[Bta][d(pT)][Pip][2Nal]Q-NH2 [peptide 16, Ac-Lys(N^ε-biotinoyl)-Ala-Ala-Bth-D-Thr(PO3H2)-Pip-Nal-Gln-NH2], the fold decrease of Ki against peptide 15 in the test with full-length hPin1 [9] turned out to be 150 fold.

The values are drawn from patent US8258099B2, “Pin1-modulating compounds and methods of use thereof” (Max-Planck-Gesellschaft zur Foerderung der Wissenschaften …, priority 2004, dated 2012).
